Experimental data published in patent US20050118651A1.
pEC50: −log10 of the molar value.

What was measured:
[1] = molecular target: synthetic Aβ1-42 peptide (aggregated in the ELISAs) (human) (UniProt P05067); assay: ELISA on aggregated synthetic Aβ1-42; given as ED50
[2] = molecular target: soluble [125I]Aβ1-42 (synthetic Aβ1-42 sonicated in DMSO, radio-iodinated) (human) (UniProt P05067); assay: capture radioimmunoassay, 50,000 CPM of 125I-Aβ1-42 (or 125I-Aβ1-40), antibody at 10 µg/ml

| pEC50 [1] | % of radioactive counts bound at 10 µg/ml [2] [%] | Substance |
| --- | --- | --- |
| 9.18 | 7 | antibody 12B4 (IgG2a) |
| 10.28 | 2 | antibody 10D5 (IgG1) |
